Source: US20210255174

System: SNAPtide (FITC/DABCYL), List Biological Laboratories product #521

Substance: BoNT/A complex (intact BoNT/A toxin complex, Metabiologics)
- Km of SNAPtide hydrolysis, bead-immobilized BoNT/A (bead based ALISSA): bead based ALISSA: typical Km=0.2 µM
- Km of SNAPtide hydrolysis, free BoNT/A (non-bead based assay): non-bead based assay: typical Km=0.7 µM
